According to US20200276130:

Columns and labels:
[1] = biological target: GST-PKM1 recombinant protein, P14618
[2] = biological target: GST-PKM2 recombinant protein, P14618
GST-PKM2 recombinant protein, P14618, sequence (P14618 whole entry, looked up): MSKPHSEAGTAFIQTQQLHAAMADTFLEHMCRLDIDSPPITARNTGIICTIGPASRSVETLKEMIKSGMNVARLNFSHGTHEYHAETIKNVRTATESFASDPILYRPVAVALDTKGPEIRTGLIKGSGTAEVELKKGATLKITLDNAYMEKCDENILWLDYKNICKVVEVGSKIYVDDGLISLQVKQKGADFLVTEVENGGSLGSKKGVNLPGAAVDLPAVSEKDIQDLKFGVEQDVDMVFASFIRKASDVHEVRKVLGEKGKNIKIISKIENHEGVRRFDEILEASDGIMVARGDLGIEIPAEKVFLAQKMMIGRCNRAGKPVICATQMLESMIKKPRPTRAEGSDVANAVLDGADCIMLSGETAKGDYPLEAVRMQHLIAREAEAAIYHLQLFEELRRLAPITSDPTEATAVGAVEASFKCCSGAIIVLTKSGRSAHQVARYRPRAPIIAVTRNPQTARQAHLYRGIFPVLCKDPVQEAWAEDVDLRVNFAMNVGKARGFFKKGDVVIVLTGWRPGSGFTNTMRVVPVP

GST-PKM1 recombinant protein, P14618, sequence (P14618 other isoform, or with tags, fused parts or gaps): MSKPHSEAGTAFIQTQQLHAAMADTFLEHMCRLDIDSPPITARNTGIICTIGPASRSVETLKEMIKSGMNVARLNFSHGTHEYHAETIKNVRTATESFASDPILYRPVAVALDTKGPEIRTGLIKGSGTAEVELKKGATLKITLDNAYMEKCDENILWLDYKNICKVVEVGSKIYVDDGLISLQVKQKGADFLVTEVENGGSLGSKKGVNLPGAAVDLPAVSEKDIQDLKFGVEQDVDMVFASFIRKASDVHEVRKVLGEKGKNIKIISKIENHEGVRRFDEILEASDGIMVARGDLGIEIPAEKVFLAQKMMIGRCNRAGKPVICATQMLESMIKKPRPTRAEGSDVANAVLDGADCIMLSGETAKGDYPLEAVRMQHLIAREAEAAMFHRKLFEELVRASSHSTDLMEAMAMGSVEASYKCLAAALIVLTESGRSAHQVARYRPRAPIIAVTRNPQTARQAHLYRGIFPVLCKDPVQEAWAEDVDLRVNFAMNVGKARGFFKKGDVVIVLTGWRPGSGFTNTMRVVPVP

B1: recombinant CARM1 used in the in vitro methylation assays (protein)
chain: MAAAAAAVGPGAGGAGSAVPGGAGPCATVSVFPGARLLTIGDANGEIQRHAEQQALRLEVRAGPDSAGIALYSHEDVCVFKCSVSRETECSRVGKQSFIITLGCNSVLIQFATPNDFCSFYNILKTCRGHTLERSVFSERTEESSAVQYFQFYGYLSQQQNMMQDYVRTGTYQRAILQNHTDFKDKIVLDVGCGSGILSFFAAQAGARKIYAVEASTMAQHAEVLVKSNNLTDRIVVIPGKVEEVSLPEQVDIIISEPMGYMLFNERMLESYLHAKKYLKPSGNMFPTIGDVHLAPFTDEQLYMEQFTKANFWYQPSFHGVDLSALRGAAVDEYFRQPVVDTFDIRILMAKSVKYTVNFLEAKEGDLHRIEIPFKFHMLHSGLVHGLAFWFDVAFIGSIMTVWLSTAPTEPLTHWYQVRCLFQSPLFAKAGDTLSGTCLLIANKRQSYDISIVAQVDQTGSKSSNLLDLKNPFFRYTGTTPSPPPGSHYTSPSENMWNTGSTYNLSSGMAVAGMPTAYDLSSVIASGSSVGHNNLIPLANTGIVNHTHSRMGSIMSTGIVQGSSGAQGSGGGSTSAHYAVNSQFTMGGPAISMASPMSIPTNTMHYGS
in vitro methylation assay (3H-SAM, autoradiography) [1]: only PKM2, but not PKM1, can be methylated by CARM1 in in vitro methylation assays | in vitro methylation assay (3H-SAM, autoradiography) [2]: only PKM2, but not PKM1, can be methylated by CARM1 in in vitro methylation assays
